Test results published in US20030099647A1 (Amgen, published 2003).

Molecular target: T1, CHO expressed human interferon gamma (hIFNγ) (human, UniProt P01579 24-161, glycosylated (highly glycosylated form purified))
T1 construct: mature; The form 'mature' is inferred from secretion into conditioned medium; also called hu-IFNγ; hu IFNγ
T1 sequence (looked up): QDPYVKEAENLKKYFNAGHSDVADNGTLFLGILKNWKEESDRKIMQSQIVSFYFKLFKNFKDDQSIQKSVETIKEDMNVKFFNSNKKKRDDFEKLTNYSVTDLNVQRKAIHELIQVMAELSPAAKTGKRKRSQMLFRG
Assay: BIAcore neutralization assay; inhibition of hu IFNγ binding to IFNγ-R1

B1: BS-B IgG (antibody, V domains shown)
VH: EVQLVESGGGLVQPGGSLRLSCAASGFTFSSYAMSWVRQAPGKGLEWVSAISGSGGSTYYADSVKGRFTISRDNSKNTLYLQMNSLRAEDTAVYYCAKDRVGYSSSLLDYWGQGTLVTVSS
VL: NFMLTQPHSVSESPGKTVTISCTRSSGSIASYYVQWYQQRPGSSPTTVIYEDDQRPSGVPDRFSGSIDSASNSASLTISGLQTEDEADYYCQSYDRNSLVFGGGTKLTVLG
notes: The construction is described for BS-A; the others were cloned 'using similar procedures'; The VH limits 1-121 come from the germline comparison legend; also called BS-B full-length human IgG1 antibody; not shown: human IgG1 constant region (CH1, hinge, CH2 and CH3 domains) of plasmid pDSRα19:hIgG1 CH
With B1 the IC50 was 9 nM.
